Measurements as given in article doi:10.1101/2021.12.29.474442, “Microtubule plus-end regulation by centriolar cap proteins” (bioRxiv, 2021).

Legend:
[1] = target: the molecule itself; assay: SEC-MALS; 20°C, Superdex S75 or S200 10/30, 20 mM HEPES pH 7.5, 150 mM NaCl, 2 mM DTT; about 7 mg/ml loaded; proteins alone and equimolar (also 2:1, 3:1) mixtures
[2] = target: T1, CPAP-CC1 (residues 89-196) (human, UniProt Q9HC77 89-196); assay: cross-linking; zero-length cross-linker DMTMM (60 mM, 6 min, 25°C) followed by mass spectrometry (xQuest); details: both partners purified
T1 construct: CPAP (CENPJ), human, residues 89-196 (coiled-coil domain CC1); Cleaved with HRV 3C (PreScission site); also called CPAP 89-196; source: E. coli BL21(DE3), purified (Ni-NTA, tag cleavage, SEC); not shown: thioredoxin, N-terminal, cleaved; His6, N-terminal, cleaved
T1 sequence (looked up): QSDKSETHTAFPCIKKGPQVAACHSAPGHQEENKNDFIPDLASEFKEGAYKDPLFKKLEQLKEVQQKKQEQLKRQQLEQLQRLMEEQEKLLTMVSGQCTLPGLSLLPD

[3] = target: the molecule itself; assay: single-molecule fluorescence intensity counting (TIRF); single molecules immobilised on coverslips in MRB80 buffer; intensity compared with purified GFP (monomers) and GFP-EB3 (dimers)

B1: CP110-CC2 (residues 635-717) (domain or fragment, human, UniProt O43303-2 635-717, looked up)
chain: GTSSKESEELLKSKMLAFEEMRKRLEEQHAQQLSLLIAEQEREQERLQKEIEEQEKMLKEKKAMTAEASELDINNAVELEWRK
notes: CP110, human, residues 635-717 (coiled-coil domain CC2); Homodimer alone by SEC-MALS; one chain of it stands in the heterodimer with CPAP-CC1; source: E. coli BL21(DE3), purified (Ni-NTA, tag cleavage, SEC); not shown: thioredoxin, N-terminal, cleaved; His6, N-terminal, cleaved
In the case of B1, the “stoichiometry N” value [1] is reported as 2 and the binding result [2] is reported as “binds”.

B2: CEP97^CP110-GFP-SII (chimera of CEP97 1-650 and CP110 581-991) (other, human, UniProt Q8IW35 1-650, looked up)
chain: MAVARVDAALPPGEGSVVNWSGQGLQKLGPNLPCEADIHTLILDKNQIIKLENLEKCKRLIQLSVANNRLVRMMGVAKLTLLRVLNLPHNSIGCVEGLKELVHLEWLNLAGNNLKAMEQINSCTALQHLDLSDNNISQIGDLSKLVSLKTLLLHGNIITSLRMAPAYLPRSLAILSLAENEIRDLNEISFLASLTELEQLSIMNNPCVMATPSIPGFDYRPYIVSWCLNLRVLDGYVISQKESLKAEWLYSQGKGRAYRPGQHIQLVQYLATVCPLTSTLGLQTAEDAKLEKILSKQRFHQRQLMNQSQNEELSPLVPVETRASLIPEHSSPVQDCQISQESEPVIQVNSWVGINSNDDQLFAVKNNFPASVHTTRYSRNDLHLEDIQTDEDKLNCSLLSSESTFMPVASGLSPLSPTVELRLQGINLGLEDDGVADESVKGLESQVLDKEEEQPLWAANENSVQMMRSEINTEVNEKAGLLPCPEPTIISAILKDDNHSLTFFPESTEQKQSDIKKPENTQPENKETISQATSEKLPMILTQRSVALGQDKVALQKLNDAATKLQACWRGFYARNYNPQAKDVRYEIRLRRMQEHIVCLTDEIRRLRKERDEERIKKFVQEEAFRFLWNQVRSLQVWQQTVDQRLSSWHFEKVKRRLDLDIDGLQKENCPYVITSGITEQERQHLPEKRYPKGSGFVNKNKMLGTSSKESEELLKSKMLAFEEMRKRLEEQHAQQLSLLIAEQEREQERLQKEIEEQEKMLKEKKAMTAEASELDINNAVELEWRKISDSSLLETMLSQADSLHTSNSNSSGFTNSAMQYSFVSANEAPFYLWGSSTSGLTKLSVTRPFGRAKTRWSQVFSLEIQAKFNKITAVAKGFLTRRLMQTDKLKQLRQTVKDTMEFIRSFQSEAPLKRGIVSAQDASLQERVLAQLRAALYGIHDIFFVMDAAERMSILHHDREVRKEKMLRQMDKMKSPRVALSAATQKSLDRKKYMKAAEMGMPNKKFLVKQNPSETRVLQPNQGQNAPVHRLLSRQGSICRKNPKKAAKCCDNLRRQHSLG
notes: CEP97, human, N-terminal amino acids 1-650; A dimer by single-molecule fluorescence intensity; No linker between the two parts is told. pTT5 based vector (Addgene #52355 is the vector); also called CEP97-CP110 chimera; CP110-CEP97 fusion
B2 was tested, and the “stoichiometry N” value [3] was 2.
